Where a chain is given by its changes, count along the chain named.

6 molecules from patent US20220275095A1 (SURROZEN OPERATING, published 2022) can be followed below.

The target in experiment [1] is Fzd1 CRD (UniProt Q9UP38 105-232). In words: BLI (Octet Red 96), biotinylated Fzd1 CRD on streptavidin biosensor. The protocol: Binding kinetics of monospecific Fzd binders to either (CRD) or the extracellular hinge region (hinge) was determined by bio-layer interferometry (BLI) using Octet Red 96 (PALL ForteBio, Fremont, Calif.) instruments at 30° C., 1000 rpm with streptavidin (SA) biosensors. N-terminal biotinylated Fzd1 or Fzd2 CRD and Fzd1 or Fzd 2 hinge proteins were captured on the SA biosensor. Following capture of biotinylated-Fzd1 or Fzd2, the SA biosensor with captured […] was dipped into wells containing the relevant antibodies at 7 different concentrations in running buffer plus a well with only running buffer as a reference channel. KD was determined by global fitting. As shown in FIGS. 4A-4H these antibody fusion proteins only bound to either Fzd1 or Fzd2 protein with the hinge region, and not to the CRD domains alone.

Experiment [2] addresses T1, human Fzd2 hinge region (human).
T1 construct: also called hFzd2L
T1 peptide: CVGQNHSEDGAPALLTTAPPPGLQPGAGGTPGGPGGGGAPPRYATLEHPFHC
Briefly: SPR. The protocol:
(§1) Certain VL and VH clones from Table 1 were PCR amplified from the phage clone and sub-cloned into pcDNA3.1 based mammalian expression vectors (Invitrogen/ThermoFisher) of human kappa or lambda light chain and human IgG1 heavy chain, respectively. Candidate IgGs were purified using Protein A affinity resin. The candidate library was captured on an anti-FC lawn. The capture lawn was prepared by direct amine coupling goat anti-human IgG Fc (Southern Biotech #2048-01) at 8000 RU on a HC200M Carterra sensor chip (Carterra 4297). Capture levels were at least 600 RU for each candidate IgG. Binding to all target peptides was measured at 25° by injecting a concentration series of each peptide in 1×PBST+0.5 mg/mL BSA (TEKnova P1192, VWR V0332). All peptides were injected at 4.12 nM, 12.3 nM, 37 nM, 111 nM, 333 nM, and 1000 nM. Two blank injections were run between each peptide concentration series. Each injection started with a one minute baseline determination, followed by a five minute association phase where peptides were injected, and finished with a 10 minute dissociation phase. Binding data was analyzed using NextGenKIT (Carterra). Blank injections and reference locations were subtracted from all runs prior to fitting a 1:1 binding model to the data. […] Interactions with an Rₘₐₓ less than 15 RU or weaker than 5 μM were considered non-binders.

The target in experiment [3] is T2, mouse Fzd9 hinge region (mouse, UniProt Q9R216 153-197, limits assumed).
T2 construct: domain: hinge region; also called mFzd9
T2 peptide (looked up): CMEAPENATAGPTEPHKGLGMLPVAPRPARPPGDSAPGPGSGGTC
Briefly: SPR. The protocol:
as §1

Experiment [4] addresses T3, human Fzd6 hinge region (human).
T3 construct: also called hFzd6L
T3 peptide: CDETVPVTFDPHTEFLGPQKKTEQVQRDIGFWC
In words: SPR. Here is the method: as §1

Experiment [5] deals with T4, mouse Fzd6 hinge region (mouse, UniProt Q61089 129-161, limits assumed).
T4 construct: domain: hinge region; also called mFzd6L
T4 peptide (looked up): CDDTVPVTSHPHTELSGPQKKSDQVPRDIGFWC
Briefly: SPR. The protocol: as §1

The target of experiment [6] is T5, human Fzd5 hinge region (human).
T5 construct: also called hFzd5L
T5 peptide: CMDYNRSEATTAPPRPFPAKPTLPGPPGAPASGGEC
Briefly: SPR. The protocol:
as §1

The target of experiment [7] is T6, mouse Fzd8 hinge region (mouse, UniProt Q61091 148-225, limits assumed).
T6 construct: domain: hinge region; also called mFzd8L; mFzd8
T6 sequence (peptide, looked up): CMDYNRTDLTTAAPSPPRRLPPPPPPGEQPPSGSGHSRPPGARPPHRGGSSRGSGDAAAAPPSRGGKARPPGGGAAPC
Briefly: SPR. The protocol: as §1

Experiment [8] deals with T7, human Fzd3 hinge region (human).
T7 construct: also called hFzd3L
T7 peptide: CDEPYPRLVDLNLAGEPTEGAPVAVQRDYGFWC
Briefly: SPR. The protocol: as §1

Experiment [9] has as its target T8, mouse Fzd2 hinge region (mouse, UniProt Q9JIP6 155-206, limits assumed).
T8 construct: domain: hinge region; also called mFzd2L
In words: SPR. Here is the method:
as §1

Experiment [10] addresses T9, human Fzd4 hinge region (human).
T9 construct: also called hFzd4L
T9 peptide: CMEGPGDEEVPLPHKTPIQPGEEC
Briefly: SPR. The protocol:
as §1

Experiment [11] concerns the target T10, mouse Fzd3 hinge region (mouse, UniProt Q61086 133-165, limits assumed).
T10 construct: domain: hinge region; also called mFzd3L
T10 peptide (looked up): T7 peptide with A14V, E16D
In words: SPR. Here is the method: as §1

The target of experiment [12] is T11, mouse Fzd4 hinge region (mouse, UniProt Q61088 158-181, limits assumed).
T11 construct: domain: hinge region; also called mFzd4L
T11 peptide (looked up): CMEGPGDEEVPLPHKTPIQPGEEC
In words: SPR. Here is the method: as §1

Experiment [13] has as its target T12, human Fzd9 hinge region (human).
T12 construct: also called hFzd9L; hFzd9
T12 peptide: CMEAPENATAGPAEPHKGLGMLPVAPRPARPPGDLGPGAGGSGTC
Briefly: SPR. Here is the method: as §1

In experiment [14] the target is T13, human Fzd10 hinge region (human).
T13 construct: also called hFzd10L
T13 peptide: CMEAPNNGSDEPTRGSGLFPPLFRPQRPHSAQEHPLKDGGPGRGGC
Briefly: SPR. Here is the method: as §1

Experiment [15] deals with T14, mouse Fzd7 hinge region (mouse, UniProt Q61090 160-208, limits assumed).
T14 construct: domain: hinge region; also called mFzd7L
T14 peptide (looked up): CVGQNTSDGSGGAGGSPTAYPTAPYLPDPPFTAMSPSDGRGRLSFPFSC
Briefly: SPR. The protocol:
as §1

Experiment [16] has as its target T15, mouse Fzd10 hinge region (mouse, UniProt Q8BKG4 148-193, limits assumed).
T15 construct: domain: hinge region; also called mFzd10L
T15 peptide (looked up): T13 peptide with T13S, L18M, G44A
Briefly: SPR. Here is the method: as §1

The target of experiment [17] is T16, mouse Fzd5 hinge region (mouse, UniProt Q9EQD0 147-182, limits assumed).
T16 construct: domain: hinge region; also called mFzd5L
T16 peptide (looked up): T5 peptide with P13S, R15K, P16S, A31S
Briefly: SPR. The protocol: as §1

Experiment [18] concerns the target T17, human Fzd1 hinge region (human).
T17 construct: also called hFzd1L
T17 peptide: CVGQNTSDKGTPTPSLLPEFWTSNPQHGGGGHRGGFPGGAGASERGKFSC
In words: SPR; *** = 100 nM > KD > 10 nM. The protocol: as §1

Experiment [19] deals with T18, mouse Fzd1 hinge region (mouse, UniProt O70421 222-271, limits assumed).
T18 construct: domain: hinge region; also called mFzd1L
T18 peptide (looked up): T17 peptide with H32Y, F36Y, A42T, S43V
Briefly: SPR; *** = 100 nM > KD > 10 nM. Here is the method:
as §1

Experiment [20] has as its target T17, human Fzd1 hinge region. In words: SPR; ** = 1 uM > KD > 100 nM. Here is the method: as §1
Experiment [21] has as its target T18, mouse Fzd1 hinge region. Briefly: SPR; ** = 1 uM > KD > 100 nM. The protocol: as §1
For experiment [22], the target named is T19, hFzd2L (human, UniProt Q14332 150-201).
T19 construct: ELISA antigen; also called human Fzd2 hinge region; Frizzled 2
In words: phage ELISA, antigen on plate. Here is the method:
Detection of bound phage was determined calorimetrically by turnover of TMB substrate (Thermo Fisher Scientific, Waltham, Mass.) at […] by anti-M13-HRP antibody (GE Healthcare, Pittsburgh, Pa.). Clones were identified as binding to a Fzd receptor when the fold OD 450 nm over background was greater than a threshold level.

B1: 033S-B03 Fab (Fab, V domains shown)
VH: QVQLVQSGAEVKKPGSSVKVSCKASGYTFTGQYMHWVRQAPGQGLEWMGGIIPIFGTAHYPQKFQGRVTITADESTSTAYMELSSLRSEDTAVYYCARRSVAAGTPFTDYWGQGTLVTVSS
VL: not shown
notes: also called 33SB3
B1: in experiment [1], the binding result is given as “no binding”.

B2: 033S-E02 (antibody, V domains shown)
VH: QVQLVQSGAEVKKPGSSVKVSCKASGGTFTSYAISWVRQAPGQGLEWMGMINPSGGRTTYAQKFQGRVTITADESTSTAYMKLSSLRSEDTAVYYCAIRTIFGVVIDYWGQGTLVTVSS
VL: not shown
notes: human IgG1, human kappa or lambda light chain; also called 33SE2
Turning to B2, the binding result in experiment [2], in [3], in experiment [4], in experiment [5], in experiment [6] and in experiment [7] was “no binding (tested: 5 uM)” in each case. For the same molecule, the binding result in experiment [8], in [9], in experiment [10], in [11], in experiment [12] and in experiment [13] was “no binding (tested: 5 uM)” each time. The binding result in experiment [14], in [15], in experiment [16] and in experiment [17] was “no binding (tested: 5 uM)” in each case. The KD in experiment [18] and in [19] was 10 to 100 nM in each case.

B3: 033S-E02 Fab (Fab, V domains shown)
VH: B2 VH
VL: not shown
notes: also called 33SE2
B3: in [1], the binding result is “no binding”.

B4: 033S-D02 (antibody, V domains shown)
VH: QVQLVQSGAEVKKPGSSVKVSCKASGITFTSSAVHWVRQAPGQGLEWLGIINPSGGSTSYAQKFQGRVTITADESTSTAYMELSSLRSEDTAVYYCARRMVYAPYKDVWGKGTMVTVSS
VL: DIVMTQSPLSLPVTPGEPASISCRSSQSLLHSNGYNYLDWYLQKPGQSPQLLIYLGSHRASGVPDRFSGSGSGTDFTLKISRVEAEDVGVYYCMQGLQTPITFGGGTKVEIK
notes: human IgG1, human kappa or lambda light chain; also called 33SD2
For the molecule B4, the equilibrium dissociation constant (KD) in [20] and in [21] was 100 to 1000 nM in each case. The binding result in [2], in experiment [3], in [4], in [5], in experiment [6] and in [7] was “no binding (tested: 5 uM)” each time. In addition, the binding result in experiment [8], in experiment [9], in experiment [10], in [11], in experiment [12] and in [13] was “no binding (tested: 5 uM)” in each case. For the same molecule, the binding result in experiment [14], in experiment [15], in experiment [16] and in experiment [17] was “no binding (tested: 5 uM)” in each case.

B5: 033S-D02 Fab (Fab, V domains shown)
VH: B4 VH
VL: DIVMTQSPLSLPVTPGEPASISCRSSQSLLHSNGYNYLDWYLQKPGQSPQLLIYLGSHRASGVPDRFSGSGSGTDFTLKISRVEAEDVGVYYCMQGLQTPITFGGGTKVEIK
notes: also called 33SD2
For B5, the binding result in experiment [1] was “no binding”.

B6: 031S-B02 (antibody, V domains shown)
VH: EVQLLESGGGLVQPGGSLRLSCAASGFTFSSYWMSWVRQAPGKGLEWVSAIGGSGANAYYADSVKGRFTISRDNSKNTLYLQMNSLRAEDTAVYYCVRDTNWAFDLWGQGTMVTVSS
VL: EIVMTQSPATLSVSPGERATLSCRASQSVSGSYLAWYQQKPGQAPRLLIYGASTRATGIPARFSGSGSGTEFTLTISSLQSEDFAVYYCQQYGSSPLTFGQGTKVEIK
notes: also called 31SB2
Take B6: in [22], the binding result is “binds”.
